As a reminder, the EC50 is the midpoint of the concentration-response curve. Read a low EC50 as a more potent agent.

The first experiment concerns the target Delta variant S protein on plant-produced virus-like particles (SARS-CoV-2 (Delta variant)) (UniProt P0DTC2). In words: ELISA. (In general: In an ELISA, binding on a coated surface is turned into a signal by an enzyme label.)
As to COVA2-15 IgG (antibody), the EC50 stood at 9.03 nM.
Turning to COVA2-15 monomeric IgA1 (antibody), the EC50 stood at 1.95 nM.
Turning to COVA2-15 monomeric IgA2 (antibody), the EC50 turned out to be 2.06 nM.
With “COVA2-15 secretory IgA1 (from UniProt P01591 23-159; P01833 19-764) (antibody)”, the EC50 came out at 0.086 nM.
“COVA2-15 secretory IgA2 (from UniProt P01591 23-159; P01833 19-764) (antibody)” yielded a concentration for a half-maximal effect (EC50) of 0.542 nM.

The target is the same in another experiment. Put plainly: ELISA. This is another data set of the same source.
Substance COVA2-15 IgG (antibody) displayed an EC50 of 9 nM.
The substance “COVA2-15 secretory IgA1 (from UniProt P01591 23-159; P01833 19-603) (antibody)” registered an EC50 of 0.09 nM.
